Data set [1] has as its system HepG2 cells. Nature of the data set: Uptake and degradation of 125I-LDL by HepG2 cells. In kind it is cell-based, human. The following applies: for Degradation % / Uptake %: % of LPDS control (100); for Degradation ng125I-LDL/mg cell protein / Uptake ng125I-LDL/mg cell protein: HepG2, 24 h preincubation in 5% LPDS, then 125I-LDL 7.5 mg/L for 5 h, mean ± SD. The source says:
The established human hepatoma cell line (HepG2) was obtained from American Type Culture Collection (Rockville, Md.). Eagle's minimum essential medium (MEM), fetal calf serum, trypsin-EDTA (1×), penicillin (10^5 U/L), streptomycin (100 g/L), tricine buffer (1 mmol/L, pH 7.4) and non-essential amino acid solutions (100×) were from GIBCO (Madison, Wis.). Petri dishes were from COSTAR (Cambridge, Mass.). Filters were from Millipore (Bedford, Mass.). […] Sephadex G25 columns (PD10) were from Pharmacia Biotech (Uppsala, Sweden). LDH and MTT kit were from Sigma Diagnostics (Milano-Italy). All other chemicals were of analytical grade from Merck (Darmstadt, Germany). […] For experiments designed to evaluate the LDL receptor modulation, cells were seeded in 35 mm plastic dishes (3-5×10^5 cells) and used just before reaching confluence. In all cell culture experiments, the medium was changed every 2-3 days. In order to assess cell viability, culture media from cells exposed to eα′ at different concentrations were tested by methyltetrazolium salts (MTT) assay, essentially as described in ref. 9. Cell enzyme leakage was determined by measuring lactate dehydrogenase (LDH) activity, using a kinetic (LDH/LD) diagnostic kit (Sigma Diagnostics). […] Human lipoprotein deficient serum (LPDS) was prepared as previously described.
Monolayers of cells were preincubated at 37° C. for 24 h in MEM supplemented with 5 g/100 g LPDS to up-regulate the LDL-receptors, in the presence/absence of eα′ at different concentrations listed in Table or 3.5 μmol/L α′ purified subunit or 1.0 μmol/L simvastatin.
Differences in cell uptake and degradation of LDL after cell incubation with eα′ at different concentrations were determined by ANOVA followed by Dunnett's test. Values are expressed as means±SD; P values<0.05 were considered as statistically significant.

For another data set, the system named is LDL-R. Conditions: Hep G2 cells exposed to the peptide at 100 μM; cited from earlier work.
Data set [2] concerns HepG2 cells. Nature of the data set: Cell viability by methyltetrazolium salts (MTT) assay. The following applies: all concentrations tested; data not shown. The format is cell-based, human. The source says: (§1) The established human hepatoma cell line (HepG2) was obtained from American Type Culture Collection (Rockville, Md.). Eagle's minimum essential medium (MEM), fetal calf serum, trypsin-EDTA (1×), penicillin (10^5 U/L), streptomycin (100 g/L), tricine buffer (1 mmol/L, pH 7.4) and non-essential amino acid solutions (100×) were from GIBCO (Madison, Wis.). Petri dishes were from COSTAR (Cambridge, Mass.). Filters were from Millipore (Bedford, Mass.). The Protein Coomassie Plus Protein Assay kit was purchased from Pierce (Rockford, Ill., USA). ^125Iodine, carrier free, in 100 mmol/L NaOH, was from Perkin Elmer Life Sciences (Boston, Mass.). Sephadex G25 columns (PD10) were from Pharmacia Biotech (Uppsala, Sweden). LDH and MTT kit were from Sigma Diagnostics (Milano-Italy). All other chemicals were of analytical grade from Merck (Darmstadt, Germany). Cells were grown in monolayers in 90 mm-diameter Petri dishes, and maintained at 37° C. in a humidified atmosphere of 95% air, 5% CO2 in MEM supplemented with 10% fetal calf serum (FCS), non essential amino acid solution (1%, v/v), penicillin (10^5 U/L), streptomycin (0.1 g/L), tricine buffer (20 mmol/L, pH 7.4), NaHCO3 (24 mmol/L) and sodium pyruvate (0.11 g/L). […] Cell enzyme leakage was determined by measuring lactate dehydrogenase (LDH) activity, using a kinetic (LDH/LD) diagnostic kit (Sigma Diagnostics). […]

Data set [3] concerns HepG2 cells. The data set can be described thus: Cell enzyme leakage, lactate dehydrogenase (LDH) activity. The format is cell-based, human. Conditions: all concentrations tested; data not shown.
Text: as §1

Marks after values point to notes of the source that are not given here.

Take `CCC(C)(C)C(=O)O[C@H]1C[C@@H](C)C=C2C=C[C@H](C)[C@H](CC[C@@H]3C[C@@H](O)CC(=O)O3)[C@H]21` [Simvastatin, simvastatin, reference compound]: in the data set with HepG2 cells [1] (1.0 μmol/L), the Degradation % worked out at 179%, the Uptake % was 200%, the “Degradation ng125I-LDL/mg cell protein” value was 143 ± 7.9** ng^125 I-LDL/mg cell protein and the “Uptake ng125I-LDL/mg cell protein” value is given as 188 ± 10** ng^125 I-LDL/mg cell protein.

Turning to “FVVNATSN (Glycine max) [LDL-R transcription stimulating peptide deriving from the 7S globulin β chain]”, the “Increased LDL-R transcription” value with LDL-R is listed as “+148%”.

B1: 7S α′ subunit: purified full size α′ subunit of the soybean 7S globulin, around 71 kDa, positive control (protein)
chain: VEEEEECEEGQIPRPRPQHPERERQQHGEKEEDEGEQPRPFPFPRPRQPHQEEEHEQKEEHEWHRKEEKHGGKGSEEEQDEREHPRPHQPHQKEEEKHEWQHKQEKHQGKESEEEEEDQDEDEEQDKESQESEGSESQREPRRHKNKNPFHFNSKRFQTLFKNQYGHVRVLQRFNKRSQQLQNLRDYRILEFNSKPNTLLLPHHADADYLIVILNGTAILTLVNNDDRDSYNLQSGDALRVPAGTTFYVVNPDNDENLRMIAGTTFYVVNPDNDENLRMITLAIPVNKPGRFESFFLSSTQAQQSYLQGFSKNILEASYDTKFEEINKVLFGREEGQQQGEERLQESVIVEISKKQIRELSKHAKSSSRKTISSEDKPFNLGSRDPIYSNKLGKLFEITQRNPQLRDLDVFLSVVDMNEGALFLPHFNSKAIVVLVINEGEANIELVGIKEQQQRQQQEEQPLEVRKYRAELSEQDIFVIPAGYPVMVNATSDLNFFAFGINAENNQRNFLAGSKDNVISQIPSQVQELAFPRSAKDIENLIKSQSESYFVDAQPQQKEEGNKGRKGPLSSILRAFY
modifications: Glycine max
notes: purified full size α′ subunit of the soybean 7S globulin, around 71 kDa, positive control
B1: in the data set with HepG2 cells [1] (3.5 μmol/L), the Degradation % is reported as 160%, the Uptake % was found to be 164%, the “Degradation ng125I-LDL/mg cell protein” value is given as 128 ± 4.8* ng^125 I-LDL/mg cell protein and the “Uptake ng125I-LDL/mg cell protein” value was 154 ± 9.1* ng^125 I-LDL/mg cell protein.

B2: eα′: recombinant N-terminal extension region of the soybean 7S globulin α′ subunit, expressed in Pichia pastoris, about 20 kDa, SEQ ID NO: 1 (protein)
chain: AVEEEEECEEGQIPRPRPQHPERERQQHGEKEEDEGEQPRPFPFPRPRQPHQEEEHEQKEEHEWHRKEEKHGGKGSEEEQDEREHPRPHQPHQKEEEKHEWQHKQEKHQGKESEEEEEDQDEDEEQDKESQESEGSESQREP
modifications: Glycine max
For B2, in the data set with HepG2 cells [1] (0.5 μmol/L), the Degradation % came out at 125%, the Uptake % worked out at 120%, the “Degradation ng125I-LDL/mg cell protein” value is reported as 100 ± 10* ng^125 I-LDL/mg cell protein and the “Uptake ng125I-LDL/mg cell protein” value is 113 ± 7.1* ng^125 I-LDL/mg cell protein. In the data set with HepG2 cells [1] (1.0 μmol/L), the Degradation % is 148%, the Uptake % was found to be 146%, the “Degradation ng125I-LDL/mg cell protein” value was 118 ± 9.3* ng^125 I-LDL/mg cell protein and the “Uptake ng125I-LDL/mg cell protein” value is 138 ± 9.2* ng^125 I-LDL/mg cell protein. Also, in the data set with HepG2 cells [1] (2.0 μmol/L), the Degradation % is 196%, the Uptake % stood at 179%, the “Degradation ng125I-LDL/mg cell protein” value is given as 157 ± 8.7** ng^125 I-LDL/mg cell protein and the “Uptake ng125I-LDL/mg cell protein” value was 169 ± 6.7** ng^125 I-LDL/mg cell protein. Also, the “Cellular toxicity, MTT assay” value in the data set with HepG2 cells [2] was “At no concentration of eα′ was there any evidence of cellular toxicity”. In addition, the “Cellular toxicity, LDH assay” value with HepG2 cells [3] is on record as “At no concentration of eα′ was there any evidence of cellular toxicity”.

These data come from patent US8569455B2, “Cloning, yeast expression, purification and biological activity of the extension region of the soybean 7S globulin alfa' subunit involved in HEP G2 cell cholesterol homeostasis” (Indena S.p.A., priority 2009, dated 2013).
